T1: EsCas13d, nuclease-dead (Eubacterium siraeum, UniProt B0MS50, R295A;H300A;R849A;H854A)
T1 sequence: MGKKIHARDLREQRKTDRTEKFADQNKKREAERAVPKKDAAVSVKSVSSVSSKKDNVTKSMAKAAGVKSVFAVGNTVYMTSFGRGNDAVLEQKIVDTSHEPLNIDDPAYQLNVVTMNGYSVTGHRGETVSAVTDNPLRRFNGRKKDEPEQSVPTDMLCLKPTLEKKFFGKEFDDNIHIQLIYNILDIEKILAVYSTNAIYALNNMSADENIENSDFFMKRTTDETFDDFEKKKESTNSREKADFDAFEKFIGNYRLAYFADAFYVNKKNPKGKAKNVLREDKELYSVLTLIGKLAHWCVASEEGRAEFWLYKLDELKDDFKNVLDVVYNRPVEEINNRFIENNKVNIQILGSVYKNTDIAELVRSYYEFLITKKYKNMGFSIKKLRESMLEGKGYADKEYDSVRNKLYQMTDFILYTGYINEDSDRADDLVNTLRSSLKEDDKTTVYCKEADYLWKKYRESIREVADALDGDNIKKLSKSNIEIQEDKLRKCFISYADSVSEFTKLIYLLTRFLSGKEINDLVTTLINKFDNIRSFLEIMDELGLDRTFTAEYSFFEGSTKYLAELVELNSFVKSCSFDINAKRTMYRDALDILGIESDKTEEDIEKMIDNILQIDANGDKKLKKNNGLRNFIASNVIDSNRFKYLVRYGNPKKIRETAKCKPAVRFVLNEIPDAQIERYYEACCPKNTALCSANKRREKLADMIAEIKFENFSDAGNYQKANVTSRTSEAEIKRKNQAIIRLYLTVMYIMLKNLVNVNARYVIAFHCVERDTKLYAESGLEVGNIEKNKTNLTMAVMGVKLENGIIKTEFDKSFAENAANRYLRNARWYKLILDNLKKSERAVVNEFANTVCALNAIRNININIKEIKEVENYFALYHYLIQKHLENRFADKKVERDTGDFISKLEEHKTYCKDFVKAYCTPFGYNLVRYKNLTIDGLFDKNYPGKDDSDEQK

B1: target 1 MT 5'PFS GGG 3'PFS CGA (mixed)
RNA 1: CACCCGUGCAAAAAUGCAGGGGUCUAAAACUGAGCGGAUAACCUCUCUAUGG
RNA 2: GGGAAUGGAUCCACAUCUACGAAUUCGGGCCAUAGAGAGGUUAUCCGCUCACGAAGAUCGGAAGAGCACACGU
B2: target 1 MT 5'PFS GAC 3'PFS ACC (mixed)
RNA 1: B1 RNA 1
RNA 2: B1 RNA 2 with G28A, G29C, C52A, G53C, A54C
B3: target 1 MT 5'PFS ACA 3'PFS UCU (mixed)
RNA 1: B1 RNA 1
RNA 2: B1 RNA 2 with G27A, G28C, G29A, C52U, G53C, A54U
B4: target 1 MT 5'PFS CUU 3'PFS AGU (mixed)
RNA 1: B1 RNA 1
RNA 2: B1 RNA 2 with G27C, G28U, G29U, C52A, A54U
B5: target 1 MT 5'PFS UGU 3'PFS CCG (mixed)
RNA 1: B1 RNA 1
RNA 2: B1 RNA 2 with G27U, G29U, G53C, A54G
B6: target 1 MT 5'PFS UCC 3'PFS AAA (mixed)
RNA 1: B1 RNA 1
RNA 2: B1 RNA 2 with G27U, G28C, G29C, C52A, G53A
B7: target 1 MT 5'PFS AGG 3'PFS AUA (mixed)
RNA 1: B1 RNA 1
RNA 2: B1 RNA 2 with G27A, C52A, G53U
B8: target 1 MT 5'PFS CUU 3'PFS UGC (mixed)
RNA 1: B1 RNA 1
RNA 2: B1 RNA 2 with G27C, G28U, G29U, C52U, A54C
B9: target 1 insU 3' of 17,insA 3' of 5 (mixed)
RNA 1: B1 RNA 1
RNA 2: GGGAAUGGAUCCACAUCUACGAAUUCGUACCAUAGUAGAGGUUAUCCGACUCACCGAGAUCGGAAGAGCACACGU
B10: target 1 insU 3' of 18,insG 3' of 16 (mixed)
RNA 1: B1 RNA 1
RNA 2: GGGAAUGGAUCCACAUCUACGAAUUCGUACCAUAUGAGGAGGUUAUCCGCUCACCGAGAUCGGAAGAGCACACGU
B11: target 1 MT 5'PFS GUA 3'PFS ACC (mixed)
RNA 1: B1 RNA 1
RNA 2: B1 RNA 2 with G28U, G29A, C52A, G53C, A54C
B12: target 1 MT 5'PFS AGA 3'PFS CGA (mixed)
RNA 1: B1 RNA 1
RNA 2: B1 RNA 2 with G27A, G29A
B13: target 1 MT 5'PFS GAC 3'PFS ACG (mixed)
RNA 1: B1 RNA 1
RNA 2: B1 RNA 2 with G28A, G29C, C52A, G53C, A54G
B14: target 1 MT 5'PFS GAA 3'PFS UUA (mixed)
RNA 1: B1 RNA 1
RNA 2: B1 RNA 2 with G28A, G29A, C52U, G53U
B15: target 1 MT 5'PFS GAA 3'PFS UUG (mixed)
RNA 1: B1 RNA 1
RNA 2: B1 RNA 2 with G28A, G29A, C52U, G53U, A54G
B16: target 1 MT 5'PFS GUA 3'PFS ACU (mixed)
RNA 1: B1 RNA 1
RNA 2: B1 RNA 2 with G28U, G29A, C52A, G53C, A54U
B17: target 1 MT 5'PFS CAC 3'PFS ACU (mixed)
RNA 1: B1 RNA 1
RNA 2: B1 RNA 2 with G27C, G28A, G29C, C52A, G53C, A54U
B18: target 1 MT 5'PFS CAC 3'PFS ACA (mixed)
RNA 1: B1 RNA 1
RNA 2: B1 RNA 2 with G27C, G28A, G29C, C52A, G53C
B19: target 1 MT 5'PFS GAA 3'PFS UUU (mixed)
RNA 1: B1 RNA 1
RNA 2: B1 RNA 2 with G28A, G29A, C52U, G53U, A54U
B20: target 1 MT 5'PFS CAC 3'PFS CAA (mixed)
RNA 1: B1 RNA 1
RNA 2: B1 RNA 2 with G27C, G28A, G29C, G53A
B21: target 1 MT 5'PFS UCG 3'PFS CAU (mixed)
RNA 1: B1 RNA 1
RNA 2: B1 RNA 2 with G27U, G28C, G53A, A54U
B22: target 1 MT 5'PFS AGG 3'PFS AUU (mixed)
RNA 1: B1 RNA 1
RNA 2: B1 RNA 2 with G27A, C52A, G53U, A54U
B23: target 1 MT 5'PFS GAC 3'PFS ACU (mixed)
RNA 1: B1 RNA 1
RNA 2: B1 RNA 2 with G28A, G29C, C52A, G53C, A54U
B24: target 1 MT 5'PFS GAA 3'PFS UUC (mixed)
RNA 1: B1 RNA 1
RNA 2: B1 RNA 2 with G28A, G29A, C52U, G53U, A54C
B25: target 1 C4A,A14G (mixed)
RNA 1: B1 RNA 1
RNA 2: B1 RNA 2 with G28U, G29A, A38G, C48A, G53C, A54G
B26: target 1 MT 5'PFS GAC 3'PFS ACA (mixed)
RNA 1: B1 RNA 1
RNA 2: B1 RNA 2 with G28A, G29C, C52A, G53C
B27: target 1 MT 5'PFS AGA 3'PFS CGC (mixed)
RNA 1: B1 RNA 1
RNA 2: B1 RNA 2 with G27A, G29A, A54C
B28: target 1 MT 5'PFS UCG 3'PFS CAC (mixed)
RNA 1: B1 RNA 1
RNA 2: B1 RNA 2 with G27U, G28C, G53A, A54C
B29: target 1 MT 5'PFS UCC 3'PFS CGA (mixed)
RNA 1: B1 RNA 1
RNA 2: B1 RNA 2 with G27U, G28C, G29C
B30: target 1 MT 5'PFS ACA 3'PFS UCG (mixed)
RNA 1: B1 RNA 1
RNA 2: B1 RNA 2 with G27A, G28C, G29A, C52U, G53C, A54G
B31: target 1 A18C,C22A (mixed)
RNA 1: B1 RNA 1
RNA 2: B1 RNA 2 with G28U, G29A, C30A, A34C, G53C, A54G
B32: target 1 MT 5'PFS UGC 3'PFS AGA (mixed)
RNA 1: B1 RNA 1
RNA 2: B1 RNA 2 with G27U, G29C, C52A
B33: target 1 MT 5'PFS GUA 3'PFS ACA (mixed)
RNA 1: B1 RNA 1
RNA 2: B1 RNA 2 with G28U, G29A, C52A, G53C
B34: target 1 MT 5'PFS AAA 3'PFS CUG (mixed)
RNA 1: B1 RNA 1
RNA 2: B1 RNA 2 with G27A, G28A, G29A, G53U, A54G
B35: target 1 MT 5'PFS CAC 3'PFS ACG (mixed)
RNA 1: B1 RNA 1
RNA 2: B1 RNA 2 with G27C, G28A, G29C, C52A, G53C, A54G
B36: target 1 MT 5'PFS UCG 3'PFS CAA (mixed)
RNA 1: B1 RNA 1
RNA 2: B1 RNA 2 with G27U, G28C, G53A
B37: target 1 MT 5'PFS GUA 3'PFS ACG (mixed)
RNA 1: B1 RNA 1
RNA 2: B1 RNA 2 with G28U, G29A, C52A, G53C, A54G

Changes are numbered by the printed parent chain. In names and notes the source's numbering stands.

What is called Kd is a measure of binding affinity in units of concentration.

This series deals with T1, EsCas13d, nuclease-dead. The series is described as follows: crRNA (strand 1, pre-loaded); Mg2+; 40 mM Tris-HCl pH 7.5, 150 mM NaCl, 6 mM MgCl2, 1 mM DTT, 0.1% Tween-20, 0.2 mg/ml BSA; 25 C; 10 min per concentration, then washed. The note with it: tags: His6-TwinStrep-SUMO cleaved; N-terminal SNAP kept (SNAP-Surface 488); label: 3' end held by stalled T7 RNA polymerase.
B1 yielded an equilibrium dissociation constant (Kd) of about 71 nM.

As to B2, the equilibrium dissociation constant (Kd) was found to be 75.5 ± 37.5 nM.

B3: the affinity, expressed as Kd, was 7.4 ± 2.8 nM.

With B4, binding was put at a Kd of 48 ± 12.5 nM.

Turning to B5, the Kd worked out at 34.5 ± 13.5 nM.

B6 displayed a Kd of about 23.5 nM.

Regarding B7, binding was put at a Kd of 26.5 ± 8.5 nM.

Molecule B8 displayed an equilibrium dissociation constant (Kd) of 22 ± 7 nM.

As to B9, the Kd stood at 19 ± 4 nM.

Turning to B10, the Kd was determined as 73 ± 31 nM.

B11: the Kd amounted to 7.95 ± 0.8 nM.

In turn, B12 came in with a dissociation constant Kd of about 90 nM.

On to B13, for which the Kd is 16.7 ± 3.95 nM.

For B14, the dissociation constant Kd is 16 ± 2.15 nM.

The molecule B15 gave a dissociation constant Kd of 12.8 ± 2.6 nM.

In turn, B16 displayed a dissociation constant Kd of 10.6 ± 0.75 nM.

B17 had an equilibrium dissociation constant (Kd) of 21 ± 7.5 nM.

Take B18: the dissociation constant (Kd) was about 45.5 nM.

As to B19, the dissociation constant (Kd) worked out at 15.3 ± 2.75 nM.

Turning to B20, the dissociation constant Kd is 12 ± 6 nM.

The molecule B21 showed an equilibrium dissociation constant (Kd) of about 80 nM.

On to B22, for which binding was characterised by a dissociation constant (Kd) of 26.5 ± 7 nM.

As to B23, the dissociation constant Kd was 14 ± 5 nM.

Consider B24, for which the affinity, expressed as Kd, was 51 ± 21 nM.

With B25, binding was characterised by a dissociation constant (Kd) of 14.8 ± 1.5 nM.

B26 displayed a dissociation constant Kd of about 46 nM.

B27 yielded a dissociation constant (Kd) of 37 ± 11 nM.

B28 showed a Kd of about 43.5 nM.

For B29, the Kd was about 48.5 nM.

B30: the Kd is 7.7 ± 1.55 nM.

Regarding B31, the affinity, expressed as Kd, was 67 ± 13 nM.

Regarding B32, the Kd was about 23 nM.

On to B33, for which the Kd came out at 17.6 ± 1.45 nM.

With B34, the dissociation constant (Kd) was 22.5 ± 5 nM.

For the molecule B35, the Kd was about 22 nM.

In turn, B36 displayed a Kd of about 44 nM.

B37 returned a Kd of 11 ± 0.92 nM.

(Values after PMC10786891, “Massively parallel profiling of RNA-targeting CRISPR-Cas13d”.)
